Patent US7011817B2, “Hydrophilic cyanine dyes” (Mallinckrodt Inc., priority 2000, dated 2006)

Assays:
[1] = Imaging of individual organs removed from CA20948 tumor-bearing rat; assay type: in vivo; settings: about 24 hours post administration
Procedure: Individual organs were removed at about 24 hours post Cytate 1 administration and imaged.

[2] = Monitoring of the blood clearance profile of peptide-dye conjugates; assay type: in vivo, Sprague-Dawley or Fischer 344 rats; settings: rat ear; monitored at 830 nm after excitation at 780 nm
Excerpt: A laser of appropriate wavelength for excitation of the dye chromophore was directed into one end of a fiber optic bundle and the other end was positioned a few millimeters from the ear of a rat. A second fiber optic bundle was also positioned near the same ear to detect the emitted fluorescent light and the other end was directed into the optics and electronics for data collection. An interference filter (IF) in the collection optics train was used to select emitted fluorescent light of the appropriate wavelength for the dye chromophore.
Sprague-Dawley or Fischer 344 rats were used in these studies. The animals were anesthetized with urethane administered via intraperitoneal injection at a dose of 1.35 g/kg body weight. After the animals had achieved the desired plane of anesthesia, a 21 gauge butterfly with 12″ tubing was placed in the lateral tail vein of each animal and flushed with heparinized saline. The animals were placed on a heating pad and kept warm throughout the entire study. The lobe of the left ear was affixed to a glass microscope slide to reduce movement and vibration.
Incident laser light delivered from the fiber optic was centered on the affixed ear. Data acquisition was then initiated, and a background reading of fluorescence was obtained prior to administration of the test agent. For Cytates 1 or 2, the peptide-dye conjugate was administered to the animal through a bolus injection, typically 0.5 to 2.0 mL, in the lateral tail vein. This procedure was repeated with several dye-peptide conjugates in normal and tumor-bearing rats. Representative profiles as a method to monitor blood clearance of the peptide-dye conjugate in normal and tumor-bearing animals are shown in FIGS. 12 to 16. The data were analyzed using a standard sigma plot software program for a one-compartment model.

[3] = test system: Pancreatic Ductal Adenocarcinoma (DSL 6A); assay: In vivo fluorescence imaging of DSL 6A tumors in rats; parameters: species or system male Lewis rats
Excerpt: (§1) A non-invasive in vivo fluorescence imaging apparatus was employed to assess the efficacy of contrast agents developed for tumor detection in animal models. A LaserMax Inc. laser diode of nominal wavelength 780 nm and nominal power of 40 mW was used. The detector was a Princeton Instruments model RTE/CCD-1317-K/2 CCD camera with a Rodenstock 10 mm F2 lens (stock #542.032.002.20) attached. An 830 nm interference […] (CVI Laser Corp., part # F10-830-4-2) was mounted in front of the CCD input lens such that only emitted fluorescent light from the contrast agent was imaged. Typically, an image of the animal was taken pre-injection of contrast agent. This image was subsequently subtracted (pixel by pixel) from the post injection images. However, the background subtraction was […] done once the animal had been removed from the sample area and returned at a later time for images taken several hours post injection.
DSL 6A tumors were induced in male Lewis rats in the left flank area by the introduction of material from a solid (donor) implant, and the tumors were palpable in approximately 14 days. The animals were anesthetized with xylazine:ketamine:acepromazine, 1.5:1.5:0.5 at 0.8 mL/kg via intramuscular injection. The area of the tumor (left flank) was shaved to expose the tumor and the surrounding surface area. […]

[4] = test system: Prostatic Carcinoma (R3327-H); assay: In vivo fluorescence imaging of prostatic carcinoma R3327-H in rats; parameters: species or system male Copenhagen rats
Excerpt: as §1
The imaging apparatus and the procedure used are described as in Example 12. Prostate tumors (Dunning R3327-H) were induced in young male Copenhagen rats in the left flank area from a solid implant. These tumors grow very slowly and palpable masses were present 4-5 months post implant. FIGS. 7C-D are images of a rat with an induced prostatic carcinoma tumor (R3327-H) imaged at two minutes (FIG. 7C) and 30 minutes (FIG. 7D) post injection.

[5] = test system: Rat pancreatic acinar carcinoma expressing the SST-2 receptor (CA20948); assay: In vivo fluorescence imaging of pancreatic acinar carcinoma CA20948 in rats
Excerpt: as §1
The imaging apparatus and the procedure used are described in Example 12. Rat pancreatic acinar carcinoma expressing the SST-2 receptor (CA20948) was induced by solid implant technique in the left flank area, and palpable masses were detected nine days post implant. The images obtained at 2 and 30 minutes post injection are shown in FIGS. 7E-F. FIGS. 7E-F are images of a rat with an induced pancreatic acinar carcinoma (CA20948) expressing the SST-2 receptor imaged at two minutes (FIG. 7E) and 30 minutes (FIG. 7F) post injection.
The imaging apparatus and the procedure used are described in Example 12, except that each animal received 500 μl of a 1.0 mg/mL solution of Cytate 1 solution of 25% dimethylsulfoxide in water.
Rat pancreatic acinar carcinoma expressing the SST-2 receptor (CA20948) were induced by solid implant technique in the left flank area, and palpable masses were detected 24 days post implant. Images were obtained at various times post injection.
Cytate 1 was evaluated in the CA20948 Lewis rat model. […] At 27 hours post injection, the animal was again imaged (FIG. 9B).

| SMILES | organ uptake: adrenals [1] | organ uptake: heart [1] | organ uptake: liver [1] | organ uptake: muscle [1] | organ uptake: pancreas [1] | organ uptake: spleen [1] | organ uptake: tumor tissue [1] | blood fluorescence signal after bolus injection (rise) [2] | blood fluorescence signal after the peak (clearance) [2] | dye intensity in the tumor ([3]; 30 minutes post-ICG injection, DSL 6A tumor, 500 μL of 0.42 mg/mL in water, tail vein) | perfusion of the agent into the tumor ([3]; DSL 6/A (pancreatic) tumor line) | dye intensity in the tumor ([4]; 30 minutes post-ICG injection, R3327-H tumor) | perfusion of the agent into the tumor ([4]; Dunning R3327H (prostate) tumor line) | dye intensity in the tumor ([5]; 30 minutes post-ICG injection, CA20948 tumor) | dye fluorescence in the tumor at 45 minutes ([5]; 45 minutes post injection, CA20948 tumor) | perfusion of the agent into the tumor ([5]; CA20948 (pancreatic) tumor line) |
| --- | --- | --- | --- | --- | --- | --- | --- | --- | --- | --- | --- | --- | --- | --- | --- | --- |
| C[C@@H](O)[C@H](NC(=O)[C@@H]1CSSC[C@H](NC(=O)[C@@H](Cc2ccccc2)NC(=O)CC[N+]2=C(/C=C/C=C/C=C/C=C3/N(CCC(=O)O)c4ccc5ccccc5c4C3(C)C)C(C)(C)c3c2ccc2ccccc32)C(=O)N[C@@H](Cc2ccc(O)cc2)C(=O)N[C@H](Cc2c[nH]c3ccccc23)C(=O)N[C@@H](CCCCN)C(=O)N[C@@H]([C@@H](C)O)C(=O)N1)C(=O)O [Cytate 1, monoOctreotate-Bisethylcarboxymethylindocyanine dye] | high uptake | significantly lower uptake | significantly lower uptake | significantly lower uptake | high uptake | significantly lower uptake | high uptake | rapidly increased to a peak value | decayed as a function of time | – | – | – | – | – | – | – |
| C[C@@H](O)[C@H](NC(=O)[C@@H]1CSSC[C@H](NC(=O)[C@@H](Cc2ccccc2)NC(=O)CCN2C(=CC=CC=CC=CC3=[N+](CCC(=O)N[C@H](Cc4ccccc4)C(=O)N[C@H]4CSSC[C@@H](C(=O)N[C@H](C(=O)O)[C@@H](C)O)NC(=O)[C@H]([C@@H](C)O)NC(=O)[C@H](CCCCN)NC(=O)[C@@H](Cc5c[nH]c6ccccc56)NC(=O)[C@H](Cc5ccc(O)cc5)NC4=O)c4ccc5ccccc5c4C3(C)C)C(C)(C)c3c2ccc2ccccc32)C(=O)N[C@@H](Cc2ccc(O)cc2)C(=O)N[C@H](Cc2c[nH]c3ccccc23)C(=O)N[C@@H](CCCCN)C(=O)N[C@@H]([C@@H](C)O)C(=O)N1)C(=O)O [Cytate 2, bisOctreotate-Bisethylcarboxymethylindocyanine dye] | – | – | – | – | – | – | – | rapidly increased to a peak value | decayed as a function of time | – | – | – | – | – | – | – |
| CC1(C)C(/C=C/C=C/C=C/C=C2\N(CCCCS(=O)(=O)O)c3ccc4ccccc4c3C2(C)C)=[N+](CCCCS(=O)(=O)[O-])c2ccc3ccccc3c21 [ICG, indocyanine green] | – | – | – | – | – | – | – | – | – | considerably diminished | slow perfusion of the agent over time into the tumor | considerably diminished | slow perfusion of the agent over time into the tumor | considerably diminished and almost absent | mostly cleared | only a slight but transient perfusion that was absent after only 30 minutes post injection |
